This is an account of results in the DeepSol protein solubility set.

This data set is described as follows: soluble on expression in E. coli; label from the status in PepcDB or PDB records.
Consider “MGGSHHHHHHGMASALAAVDIRDNLLGISWVDSSWIPILNSGSVLDYFSERSNPFYDRTCNNEVVKMQRLTLEHLNQMVGIEYILLHAQEPILFIIRKQQRQSPAQVIPLADYYIIAGVIYQAPDLGSVINSRVLTAVHGIQSAFDEAMSYCRYHPSKGYWWHFKDHEEQDKVRPKAKRKEEPSSIFQRQRVDALLLDLRQKFPPKFVQLKPGEKPVPVDQTKKEAEPIPETVKPEEKETTKNVQQTVSAKGPPEKRMRLQ”, for which the “soluble on expression in E. coli” value is recorded as “not soluble”. Take “MLFEGLPCLAVWCKNRLSAVLPVGGLNVSENLLEIETHPFDPVLPPKAAVMMMGTFPPKEDKRAMQFHYPNFQNDMWRVYGLVFFNDAAHFQRLSEKAFDAEKIKAFLHERGIASCPTVLKAVRQHGNASDKFLKVVETVDLAAVLAKIPECRHICTTGGKATEILLDIQGGGIKMPKTGETVPFPFAGRDLTLTRLPSTSRAYPLSLAKKAAAYRAFFEMAGLCEKQLLEHHHHHH”: the “soluble on expression in E. coli” value is listed as “not soluble”. “MAHHHHHHMMKEETLNSDNSSAEVSVESPSFSFNCAHFIAYNGFRETLHGHNYNVSLKVRGYVRDDGYVIDFSILKEKVKKVCNKLDHHFILPIYSDVLKFENVKNNIKIICEDNSEYSFPERDCIKLPIKHSSTEEIGQYILNQLIEEMDVSLLKSRHIHYIEISVSESPTQKAIVHKYI”: the “soluble on expression in E. coli” value is “soluble”. Take “GSMPKPGILKSKSMFCVIYRSSKRDQTYLYVEKKDDFSRVPEELMKGFGQPQLAMILPLDGRKKLVNADIEKVKQALTEQGYYLQLPPPPEDLLKQHLSVMGQKTDDTNK”: the “soluble on expression in E. coli” value is recorded as “soluble”. Under “MLKKKVNNDAGKTFILISSSCSSCQKAIEYFKENNLSYTIENFYKKPISDKRFRDILSLSEDGTESLFSKRADQIRSNTNQSVEDLTIPELIKLIRERPSILRRPIIIQYNSSGIPKRMRIGYNAAEIKVFERSLMEPKVRTVKK” stands “soluble”; under “MSQFSKDQVQDMYYLSPMQEGMLFHAILNPGQSFYLEQITMKVKGSLNIKCLEESMNVIMDRYDVFRTVFIHEKVKRPVQVVLKKRQFHIEEIDLTHLTGSEQTAKINEYKEQDKIRGFDLTRDIPMRAAIFKKAEESFEWVWSYHHIILDGWCFGIVVQDLFKVYNALREQKPYSLPPVKPYKDYIKWLEKQDKQASLRYWREYLEGFEGQTTFAEQRKKQKDGYEPKELLFSPSEAETKAFTELAKSQHTTLSTALQAVWSVLISRYQQSGDLAFGTVVSGRPAEIKGVEHMVGLFINVVPRRVKLSEGITFNGLLKRLQEQSLQSEPHQYVPLYDIQSQADQPKLIDHIIVFENYPLQDAKNEESSENGFDMVDVHVFEKSNYDLNLMASPGDEMLIKLAYNENVFDEAFILRLKSQLLTAIQQLIQNPDQPVSTINLVDDREREFLLTGLNPPAQAHETKPLTYWFKEAVNANPDAPALTYSGQTLSYRELDEEANRIARRLQKHGAGKGSVVALYTKRSLELVIGILGVLKAGAAYLPVDPKLPEDRISYMLADSAAACLLTHQEMKEQAAELPYTGTTLFIDDQTRFEEQASDPATAIDPNDPAYIMYTSGTTGKPKGNITTHANIQGLVKHVDYMAFSDQDTFLSVSNYAFDAFTFDFYASMLNAARLIIADEHTLLDTERLTDLILQENVNVMFATTALFNLLTDAGEDWMKGLRCILFGGERASVPHVRKALRIMGPGKLINCYGPTEGTVFATAHVVHDLPDSISSLPIGKPISNASVYILNEQSQLQPFGAVGELCISGMGVSKGYVNRADLTKEKFIENPFKPGETLYRTGDLARWLPDGTIEYAGRIDDQVKIRGHRIELEEIEKQLQEYPGVKDAVVVADRHESGDASINAYLVNRTQLSAEDVKAHLKKQLPAYMVPQTFTFLDELPLTTNGKVNKRLLPKPDQDQLAEEWIGPRNEMEETIAQIWSEVLGRKQIGIHDDFFALGGHALKAMTAASRIKKELGIDLPVKLLFEAPTIAGISAYLKNGGSDGLQDVTIMNQDQEQIIFAFPPVLGYGLMYQNLSSRLPSYKLCAFDFIEEEDRLDRYADLIQKLQPEGPLTLFGYSAGCSLAFEAAKKLEEQGRIVQRIIMVDSYKKQGVSDLDGRTVESDVEALMNVNRDNEALNSEAVKHGLKQKTHAFYSYYVNLISTGQVKADIDLLTSGADFDIPEWLASWEEATTGVYRMKRGFGTHAEMLQGETLDRNAEILLEFLNTQTVTVSKGEFEAYVEQKLISEEDLNSAVDHHHHHH”, “soluble”.

On to “MTIDVWMQHPTQRFLHGDMFASLRRWTGGSIPETDIPIEATVSSMDAGGVTLGLLSAWRGPNGQDLISNDAVAEWVRLYPNRFAGLAAVDLDRPMAAVRELRRRVGEGFVGLRVVPWLWGAPPTDRRYYPLFAECVQSAVPFCTQVGHTGPLRPSETGRPIPYIDQVALDFPELVIVCGHVGYPWTEEMVAVARKHENVYIDTSAYTIKRLPGKLVRFMKTDTGQRKVLFGTNYPMIAHTHALTGLDELGLSDEARRDFLHGNAVRVFKLDPRGKVQT”, for which the “soluble on expression in E. coli” value is listed as “not soluble”. For the sequence “ATDATSLATDKDKLSYSIGADLGKNFKNQGIDVNPEAMAKGMQDAMSGAQLALTEQQMKDVLNKFQKDLMAKRTAEFNKKADENKVKGEAFLTENKNKPGVVVLPSGLQYKVINSGNGVKPGKSDTVTVEYTGRLIDGTVFDSTEKTGKPATFQVSQVIPGWTEALQLMPAGSTWEIYVPSGLAYGPRSVGGPIGPNETLIFKIHLISVKKSS”, the “soluble on expression in E. coli” value is on record as “soluble”. Turning to “MAHHHHHHMTFCGFGCVSTSEVGIIENCGKFDRTADPGCFCIVPCVESVRGVVSLKVAISTVRVETKTRDNAVVNIETRLHYKVIAECAEDAFYRFSNPSEQIASFAASVVRGEVPKYTLDELFLMSDEIKKVVSAELTEKLRGFGFSLESTLLTRIEPSASVKTAISQTQINAYRRTAAEHESELNKILAVKAAEADYEEKRLSGVGLAQERQAIMKGLKSSIESFVNAVPSMRAKDVMNLLLLNQYFDAMKEVGSGKSNKLILMPNTCGAAPNFMADLVAAQAGAARMM”, the “soluble on expression in E. coli” value is on record as “not soluble”. For “MGSDKIHHHHHHMSRIENQFTVQFWGVRGSIPSPGPHTVRYGGNTPCISMQAGDKRLVFDAGTGLHVLGQSWLRQMPLEGHIFFTHSHWDHMQGFPFFTPGFVKGNDFHIYGAIAPDGSTIEQRLNDQMLHPNFPVPLQIMQANLKFYDIRPGQPIHIDDVTVETAPLNHPGEAVGYRVNWRGGAVAYITDTEHFPDRLDDNVLWLARNADILVYDSTYTDEEYHSPKTPKIGWGHSTWQEAVKVAQAANVKTLVIYHHDPAHNDDFLDCVGQQASEKFPGAIMAREGMVLQIPTSVALSESFPVSKFST”, the “soluble on expression in E. coli” value is “not soluble”. Consider “MSNPITITESAQSHFAKLLAQQPEGTNIRVFVVNPGTQNAECGVSYCPPEAVEATDTEYPFSGFSAYVDELSLPFLEEAVIDFVTDKMGSQLTLKAPNAKMRKVSDDASLMERVEYALQTQVNPQLAGHGGHVRLISISDDGVALVQFGGGCNGCSMVDVTLKEGIEKELLAQFAGELTAVRDSTEHDRGEHSYY”, for which the “soluble on expression in E. coli” value is listed as “not soluble”. Turning to “MDKKVYNTYVSILKNELVVALGCTEPIAIAYAGAKVREVLEAMPDRCEINCSGNIVKNVKGVTVPNSGGMKGIDTAATLGIVGGNVKRILAVLEDITPEQIETTQKLVKEGFCSCGLIEGVENLYIIITAYAGEESATVEIRDYHSNITKIVKNGKIIFSTDDEQSEQSSGPDKSLLNVKDILEFADCVDLSDISEVISRQIECNTAISQEGLNNPWGAQVGRTLLDTFGSDVAIRAKAAAAAGSDARMSGCPMPVVINSGSGNQGMTVSLPIIEYAKEYNISDEGLYRALVAGNLISLHQKKYIGSLSAYCGAVSAACGSGVGIAYMLGASYDEICGIITDTIATIGGMVCDGAKPSCAAKIASAVDCALTAFHLSKNKRVFQPGEGLVKETVEDTIQSIGRMGREGMKATDIEILNIMLEN”, the “soluble on expression in E. coli” value is “not soluble”.

As to “SMDMKQQNFCVVELLPSDPEYNTVASKFNQTCSHFRIEKIERIQNPDLWNSYQAKKKTMDAKNGQTMNEKQLFHGTDAGSVPHVNRNGFNRSYAGKNAVAYGKGTYFAVNANYSANDTYSRPDANGRKHVYYVRVLTGIYTHGNHSLIVPPSKNPQNPTDLYDTVTDNVHHPSLFVAFYDYQAYPEYLITFRK”, the “soluble on expression in E. coli” value is “soluble”.

In the case of “MVKTGIEDVCGHWGHNFWRDKFKKFDDKYLRNVLIRENQPKSSIVSLYKKLEIKHAIEMAETGMISTVPTFASLNDCREEKIRKVTSSETDEIRELLSRNLYQIRQRTLSYNRHSLTADTSERQAKEILIRRRHSLRESIRKDSSLNREHRASTSTSRYLSLPKNTKLPEKLQKRRTISIADGNSSSSDAHAGTTVLNLLEHHHHHH”, the “soluble on expression in E. coli” value was “not soluble”. In the case of “MEMVKSRSKVAIIGAGFVGASAAFTMALRQTANELVLIDVFKEKAIGEAMDINHGLPFMGQMSLYAGDYSDVKDCDVIVVTAGANRKPGETRLDLAKKNVMIAKEVTQNIMKYYNHGVILVVSNPVDIITYMIQKWSGLPVGKVIGSGTVLDSIRFRYLLSEKLGVDVKNVHGYIIGEHGDSQLPLWSCTHIAGKNINEYIDDPKCNFTEEDKKKIAEDVKTAGATIIKNKGATYYGIAVSINTIVETLLKNQNTIRTVGTVINGMYGIEDVAISLPSIVNSEGVQEVLQFNLTPEEEEALRFSAEQVKKVLNEVKNL”, the “soluble on expression in E. coli” value was “soluble”. Turning to “MGSDKIHHHHHHMISQHVRKKTREYPNRFFDSSVWNDLALRRGDIVIASYAKAGTTWLQQIVAQLIFGGEPNIDVSAISPWVDGVYPDKATKLALLEAQSQRRFMKTHLPADALVTSPLARYLYIGRDGRDIALSLYDHQCAVSQDAQARVHANGGKSGKLRVVSPPGLPRDAYVAHWLEYDGAPFWPLWENVRSWWERREDANVLLLHYADLLDDLPGQIRLIAAFLGITVAQDRWDAIVAHCRFDYMRQHAARYVPQGTGLWREDGKAFFNQGRIGRWREVLPAELNTAYSRRAEAELGRDAAQWLAHGQTQTS”, the “soluble on expression in E. coli” value was “not soluble”. Under “SALIAALSVSGLPSNRFTFEGFLPAKPTARRDRLTHLAHEPRTLIFYEASHRIAECLTDLATIFGSMRIAVVARELTKIFETVLDGTLATLQTQVANDENQRKGEFVIIVQGAADQ” stands “not soluble”; under “MGSDKIHHHHHHMRPKILFVVNVDWFFVSHRLPIAVAAQNVGYDVHIACQVTDKKQELEGYGFTVHSISLDRSGTSVLKEFQTMLSIYRLIKKISPALMHMITVKPVIYAGIAARILGVSKVASISGLGFIFIAEGFKSKLLKSLITILYKLALNDGKSRVIFQNDSDKGLFIRRGIISDSNTLLVRGSGVDLDKYQVKPEPESYPVIVLLARLLIDKGVLEFVQAAEILKSKGVPCKMVLAGDTDENPKSVSKNQITDWVNKGIVEYWGYSKDVNSTYANCHIAVLPSYREGLPKSLIEAAACGRAVITTDVPGCRDAITPNKTGLLVPVKSSLELALAIETLCNDSKLRQSLGQEGRQLAEQAFDIKSVIQIHLNLYADLLKGKPSV”, “not soluble”. “PVNQKSKRSELSQRRIRRPFSVAEVEALVEAVEHLGTGRWRDVKMRAFDNADHRTYVDLKDKWKTLVHTASIAPQQRRGEPVPQDLLDRVLAAHAYWSQQQGKQHVEPLKILDAKAQKVGA”: the “soluble on expression in E. coli” value is given as “soluble”. For the sequence “METPKLSVEAIEKGTVIDHIPAGRGLTILRQFKLLHYGNAVTVGFNLPSKTQGSKDIIKIKGVCLDDKAADRLALFAPEAVVNTIDNFKVVQKRHLNLPDEIAEVFRCPNTNCAGHGEPVKSRFYVKKHNGQTRLKCHYCEKTYSRDSVAEA”, the “soluble on expression in E. coli” value is listed as “not soluble”. Regarding “MKYSLCTISFRHQLISFTDIVQFAYENGFEGIELWGTHAQNLYMQEYETTERELNCLKDKTLEITMISDYLDISLSADFEKTIEKCEQLAILANWFKTNKIRTFAGQKGSADFSQQERQEYVNRIRMICELFAQHNMYVLLETHPNTLTDTLPSTLELLGEVDHPNLKINLDFLHIWESGADPVDSFQQLRPWIQHYHFKNISSADYLHVFEPNNVYAAAGNRTGMVPLFEGIVNYDEIIQEVRDTDHFASLEWFGHNAKDILKAEMKVLTNRNLEVVTSENLYFQ”, the “soluble on expression in E. coli” value is “soluble”.
